Drawing on patent publication US20220064329A1 (Novo Nordisk, published 2022), this text covers Kd for 15 molecules.

To fix the notation:
T1: recombinant human activated Factor VII (FVIIa) (human, UniProt P08709 61-212; P08709 213-466, ten glutamate residues of the Gla domain may be gamma-carboxylated)
T1 construct: chains tethered by a disulfide bond; also called Factor VIIa; rFVIIa
T1 sequence 1: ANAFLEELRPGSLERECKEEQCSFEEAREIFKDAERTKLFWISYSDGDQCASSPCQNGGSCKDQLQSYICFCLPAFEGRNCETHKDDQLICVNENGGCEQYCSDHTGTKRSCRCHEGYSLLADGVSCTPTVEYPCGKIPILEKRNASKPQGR
T1 sequence 2: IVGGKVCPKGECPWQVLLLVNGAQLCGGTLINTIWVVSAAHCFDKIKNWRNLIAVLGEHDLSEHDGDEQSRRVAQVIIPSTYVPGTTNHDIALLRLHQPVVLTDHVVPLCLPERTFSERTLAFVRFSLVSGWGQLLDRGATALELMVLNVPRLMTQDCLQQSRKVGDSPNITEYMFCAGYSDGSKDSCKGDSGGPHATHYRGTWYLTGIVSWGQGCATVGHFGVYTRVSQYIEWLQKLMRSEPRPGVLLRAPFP

B1: VH SEQ ID NO 562 / VL SEQ ID NO 422 (antibody, IgG4, V domains shown)
VH: QVQLQESGPGLVKPSDTLSLTCAVSGYSISSDSAWSWIRQPPGKGLEWIGYIQYSGSTNYNPSLKSRVTMSRDTSKNQFSLKLSSVTALDTAVYYCARSVNYYGNSFAVGPWGQGTLVTVSS
VL: EIVLTQSPATLSLSPGERATLSCRASQGVSDYLAWYQQKPGQAPRLLIKYASQPATGIPARFSGSGSGTDFTLTISSLEPEDFAVYYCQQGHSFPLTFGQGTKLEIK
notes: humanized 11F2; IgG4 S228P/kappa
B2: VH SEQ ID NO 570 / VL SEQ ID NO 334 (antibody, IgG4, V domains shown)
VH: QVQLQESGPGLVKPSDTLSLTCAVSGYSISSDSAWSWIRQPPGKGLEWIGYIQYSGSTNYNPSLKSRVTMSRDTSKNQFSLKLSSVTAADTAVYYCARSVNYYGNSFAVGPWGQGTLVTVSS
VL: EIVLTQSPATLSLSPGERATLSCRASQGISDYLHWYQQKPGQAPRLLIKYASQPATGIPARFSGSGSGTDFTLTISSLEPEDFAVYYCQNGHSFPLTFGQGTKLEIK
notes: as for B1
B3: VH SEQ ID NO 562 / VL SEQ ID NO 478 (antibody, IgG4, V domains shown)
VH: QVQLQESGPGLVKPSDTLSLTCAVSGYSISSDSAWSWIRQPPGKGLEWIGYIQYSGSTNYNPSLKSRVTMSRDTSKNQFSLKLSSVTALDTAVYYCARSVNYYGNSFAVGPWGQGTLVTVSS
VL: EIVLTQSPATLSLSPGERATLSCRASQGVSDYLHWYQQKPGQAPRLLIKYASQPATGIPARFSGSGSGTDFTLTISSLEPEDFAVYYCQQGHSFPLTFGQGTKLEIK
notes: as for B1
B4: VH SEQ ID NO 570 / VL SEQ ID NO 326 (antibody, IgG4, V domains shown)
VH: QVQLQESGPGLVKPSDTLSLTCAVSGYSISSDSAWSWIRQPPGKGLEWIGYIQYSGSTNYNPSLKSRVTMSRDTSKNQFSLKLSSVTAADTAVYYCARSVNYYGNSFAVGPWGQGTLVTVSS
VL: EIVLTQSPATLSLSPGERATLSCRASQGISDYLHWYQQKPGEAPRLLIKYTSQPATGIPARFSGSGSGTDFTLTISSLEPEDFGVYYCQNGHSFPLTFGAGTKLELK
notes: as for B1
B5: VH SEQ ID NO 562 / VL SEQ ID NO 502 (antibody, IgG4, V domains shown)
VH: QVQLQESGPGLVKPSDTLSLTCAVSGYSISSDSAWSWIRQPPGKGLEWIGYIQYSGSTNYNPSLKSRVTMSRDTSKNQFSLKLSSVTALDTAVYYCARSVNYYGNSFAVGPWGQGTLVTVSS
VL: EIVLTQSPATLSLSPGERATLSCRASQGVSDYLHWYQQKPGQAPRLLIKYTSQPATGIPARFSGSGSGTDFTLTISSLEPEDFAVYYCQNGHSFPLTFGQGTKLEIK
notes: as for B1
B6: VH SEQ ID NO 562 / VL SEQ ID NO 438 (antibody, IgG4, V domains shown)
VH: QVQLQESGPGLVKPSDTLSLTCAVSGYSISSDSAWSWIRQPPGKGLEWIGYIQYSGSTNYNPSLKSRVTMSRDTSKNQFSLKLSSVTALDTAVYYCARSVNYYGNSFAVGPWGQGTLVTVSS
VL: EIVLTQSPATLSLSPGERATLSCRASQGVSDYLAWYQQKPGQAPRLLIKYASQPATGIPARFSGSGSGTDFTLTISSLEPEDVAVYYCQNGHSFPLTFGQGTKLEIK
notes: as for B1
B7: VH SEQ ID NO 562 / VL SEQ ID NO 494 (antibody, IgG4, V domains shown)
VH: QVQLQESGPGLVKPSDTLSLTCAVSGYSISSDSAWSWIRQPPGKGLEWIGYIQYSGSTNYNPSLKSRVTMSRDTSKNQFSLKLSSVTALDTAVYYCARSVNYYGNSFAVGPWGQGTLVTVSS
VL: EIVLTQSPATLSLSPGERATLSCRASQGVSDYLHWYQQKPGQAPRLLIKYASQPATGIPARFSGSGSGTDFTLTISSLEPEDVAVYYCQNGHSFPLTFGQGTKLEIK
notes: as for B1
B8: VH SEQ ID NO 562 / VL SEQ ID NO 430 (antibody, IgG4, V domains shown)
VH: QVQLQESGPGLVKPSDTLSLTCAVSGYSISSDSAWSWIRQPPGKGLEWIGYIQYSGSTNYNPSLKSRVTMSRDTSKNQFSLKLSSVTALDTAVYYCARSVNYYGNSFAVGPWGQGTLVTVSS
VL: EIVLTQSPATLSLSPGERATLSCRASQGVSDYLAWYQQKPGQAPRLLIKYASQPATGIPARFSGSGSGTDFTLTISSLEPEDFGVYYCQNGHSFPLTFGQGTKLEIK
notes: as for B1
B9: VH SEQ ID NO 562 / VL SEQ ID NO 454 (antibody, IgG4, V domains shown)
VH: QVQLQESGPGLVKPSDTLSLTCAVSGYSISSDSAWSWIRQPPGKGLEWIGYIQYSGSTNYNPSLKSRVTMSRDTSKNQFSLKLSSVTALDTAVYYCARSVNYYGNSFAVGPWGQGTLVTVSS
VL: EIVLTQSPATLSLSPGERATLSCRASQGVSDYLHWYQQKPGEAPRLLIKYASQPATGIPARFSGSGSGTDFTLTISSLEPEDFAVYYCQNGHSFPLTFGQGTKLEIK
notes: as for B1
B10: VH SEQ ID NO 562 / VL SEQ ID NO 486 (antibody, IgG4, V domains shown)
VH: QVQLQESGPGLVKPSDTLSLTCAVSGYSISSDSAWSWIRQPPGKGLEWIGYIQYSGSTNYNPSLKSRVTMSRDTSKNQFSLKLSSVTALDTAVYYCARSVNYYGNSFAVGPWGQGTLVTVSS
VL: EIVLTQSPATLSLSPGERATLSCRASQGVSDYLHWYQQKPGQAPRLLIKYASQPATGIPARFSGSGSGTDFTLTISSLEPEDFGVYYCQNGHSFPLTFGQGTKLEIK
notes: as for B1
B11: VH SEQ ID NO 570 / VL SEQ ID NO 342 (antibody, IgG4, V domains shown)
VH: QVQLQESGPGLVKPSDTLSLTCAVSGYSISSDSAWSWIRQPPGKGLEWIGYIQYSGSTNYNPSLKSRVTMSRDTSKNQFSLKLSSVTAADTAVYYCARSVNYYGNSFAVGPWGQGTLVTVSS
VL: EIVLTQSPATLSLSPGERATLSCRASQGISDYLHWYQQKPGQAPRLLIKYTSQPATGIPARFSGSGSGRDFTLTISSLEPEDFAVYYCQNGHSFPLTFGAGTKLELK
notes: as for B1
B12: VH SEQ ID NO 562 / VL SEQ ID NO 462 (antibody, IgG4, V domains shown)
VH: QVQLQESGPGLVKPSDTLSLTCAVSGYSISSDSAWSWIRQPPGKGLEWIGYIQYSGSTNYNPSLKSRVTMSRDTSKNQFSLKLSSVTALDTAVYYCARSVNYYGNSFAVGPWGQGTLVTVSS
VL: EIVLTQSPATLSLSPGERATLSCRASQGVSDYLHWYQQKPGQAPRLLIKYASQPATGIPARFSGSGSGTDFTLTISSLEPEDFAVYYCQNGHSFPLTFGAGTKLEIK
notes: as for B1
B13: VH SEQ ID NO 570 / VL SEQ ID NO 318 (antibody, IgG4, V domains shown)
VH: QVQLQESGPGLVKPSDTLSLTCAVSGYSISSDSAWSWIRQPPGKGLEWIGYIQYSGSTNYNPSLKSRVTMSRDTSKNQFSLKLSSVTAADTAVYYCARSVNYYGNSFAVGPWGQGTLVTVSS
VL: EIVLTQSPATLSLSPGERATLSCRASQGISDYLHWYQQKPGEAPRLLIKYTSQPATGIPARFSGSGSGTDFTLTISSLEPEDFAVYYCQNGHSFPLTFGQGTKLEIK
notes: as for B1
B14: VH SEQ ID NO 570 / VL SEQ ID NO 310 (antibody, IgG4, V domains shown)
VH: QVQLQESGPGLVKPSDTLSLTCAVSGYSISSDSAWSWIRQPPGKGLEWIGYIQYSGSTNYNPSLKSRVTMSRDTSKNQFSLKLSSVTAADTAVYYCARSVNYYGNSFAVGPWGQGTLVTVSS
VL: EIVLTQSPATLSLSPGERATLSCRASQGISDYLAWYQQKPGQAPRLLIKYASQPATGIPARFSGSGSGTDFTLTISSLEPEDFAVYYCQNGHSFPLTFGQGTKLEIK
notes: as for B1
B15: VH SEQ ID NO 562 / VL SEQ ID NO 470 (antibody, IgG4, V domains shown)
VH: QVQLQESGPGLVKPSDTLSLTCAVSGYSISSDSAWSWIRQPPGKGLEWIGYIQYSGSTNYNPSLKSRVTMSRDTSKNQFSLKLSSVTALDTAVYYCARSVNYYGNSFAVGPWGQGTLVTVSS
VL: EIVLTQSPATLSLSPGERATLSCRASQGVSDYLHWYQQKPGQAPRLLIKYASQPATGIPARFSGSGSGTDFTLTISSLEPEDFAVYYCQNGHSFPLTFGQGTKLEIK
notes: as for B1

This assay deals with T1, recombinant human activated Factor VII …. The assay is described as follows: BLI (Fortebio). A general note: BLI is a label-free optical method that tracks binding on a fibre tip over time.
On to B1, for which the Kd (usually the constant that tells how readily two partners part at equilibrium) amounted to 18 nM.
As to B2, the Kd is 0.92 nM.
In the case of B3, the Kd came to 2.6 nM.
Under B4 stands 0.55 nM; under B5, 1.1 nM; under B6, 11 nM.
The value for B7 was 1.6 nM; that for B8 was 7.9 nM; that for B9 was 1.4 nM.
For the molecule B10, the Kd is 1.3 nM.
As to B11, the dissociation constant Kd amounted to 1.5 nM.
The value for B12 was 1.4 nM; that for B13 was 0.83 nM.
For B14, the Kd is 13 nM.
For the molecule B15, the Kd was found to be 1.4 nM.
